Molecular target: T1, IKZF3 136-180 and 236-249-tagged avian myelocytomatosis viral oncogene (MYC) homolog (Homo sapiens, UniProt Q96SW2+Q9UKT9, DEL181-196/S197T)
T1 construct: expressed in transfected cells; host or cells: HEK293T
Experiment: Western blot of IKZF3-tagged MYC in HEK293T cells
Format: cell-based
Settings: tag fused to N-terminus of MYC; lenalidomide 4 hours

T1 sequence (Q96SW2 whole entry, stated change not applied, one chain of several): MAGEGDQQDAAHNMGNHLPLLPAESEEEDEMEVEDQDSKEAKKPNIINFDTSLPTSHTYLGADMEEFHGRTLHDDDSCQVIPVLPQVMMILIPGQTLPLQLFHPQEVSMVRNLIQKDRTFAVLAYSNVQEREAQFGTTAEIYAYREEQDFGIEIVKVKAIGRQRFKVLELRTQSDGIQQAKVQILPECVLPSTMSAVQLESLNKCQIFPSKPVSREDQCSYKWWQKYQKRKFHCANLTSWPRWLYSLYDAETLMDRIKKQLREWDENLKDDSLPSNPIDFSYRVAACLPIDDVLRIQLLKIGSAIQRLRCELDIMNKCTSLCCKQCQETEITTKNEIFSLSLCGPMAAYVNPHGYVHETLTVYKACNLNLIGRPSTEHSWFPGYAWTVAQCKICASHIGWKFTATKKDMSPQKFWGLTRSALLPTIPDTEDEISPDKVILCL

IKZF3 136-180 and 236-249: IKZF3-based degradation tag with amino acid residues 136-180 and 236-249 of human IKZF3, SEQ ID NO: 3 (HKRSHTGERPFQCNQCGASFTQKGNLLRHIKLHTGEKPFKCHLCNTASAEARHIKAEMG; source: /note="Description of Unknown: IKZF3 sequence")
ability of the tag to mediate lenalidomide-dependent degradation of MYC: mediated the lenalidomide-dependent degradation of tagged MYC
